Assay results as given in publication PMC10139410, “β-Cyclodextrin Polymer-Based Fluorescence Enhancement Strategy via Host–Guest Interaction for Sensitive Assay of SARS-CoV-2”.

Assays:
[1] = biological target: T1, SARS-CoV-2 nucleocapsid (N) protein (SARS-CoV-2, UniProt P0DTC9 1-419); experiment: circular dichroism; 1 uM each, 30 min at 37 C; 280 nm peak increased; Tris-HCl pH 7.6, 37 C, 30 min; 400 nM aptamer, 240 U/mL Exo I, 1.5 mg/mL beta-CDP; salt not in the material held
[2] = biological target: T1, SARS-CoV-2 nucleocapsid (N) protein; experiment: Exo I protection, agarose gel; 600 nM N protein, 400 nM aptamer, 240 U/mL Exo I; labeled form inferred from text on pyrene; Tris-HCl pH 7.6, 37 C, 30 min; 400 nM aptamer, 240 U/mL Exo I, 1.5 mg/mL beta-CDP; salt not in the material held; details: label: 3'-pyrene

B1: N protein-binding aptamer (ssDNA)
DNA: GCTGGATGTCGCTTACGACAATATTCCTTAGGGGCACCGCTACATTGACACATCCAGC
Does B1 bind [1]?
Result: binds

B2: Pyrene-labeled N protein binding aptamer (ssDNA)
DNA: B1 DNA
modifications: 5'-SH (so in the source); 3'-pyrene
Does B2 bind [2]?
Result: binds
